For assay [1], the target named is HLA-A*02:01. Description: IEDB peptide-MHC binding, purified MHC/competitive/radioactivity; filed as Kd, often an IC50 or EC50 that approximates it; ≥ and ≤ were set here for values at or beyond the usual limits of such assays.
For assay [2], the target named is HLA-A*02:17. Described as above.
In assay [3] the target is HLA-B*15:17. Nature of the assay: IEDB peptide-MHC binding, purified MHC/direct/fluorescence; filed as Kd, often an IC50 or EC50 that approximates it; ≥ and ≤ were set here for values at or beyond the usual limits of such assays.
In assay [4] the target is HLA-B*57:01. The description is as above.
Assay [5] has as its target HLA-B*58:01. The description is as above.
Assay [6] concerns the target HLA-A*01:01. The description is as above.
Assay [7] deals with HLA-A*02:01. The description is as above.
The target in assay [8] is HLA-A*03:01. Described as above.
The target in assay [9] is HLA-A*11:01. Described as above.
In assay [10] the target is HLA-A*31:01. The description is as above.
The target of assay [11] is HLA-A*69:01. Described as above.
For assay [12], the target named is HLA-B*15:01. The description is as above.
The target in assay [13] is HLA-B*18:01. The assay is described as above.
In assay [14] the target is HLA-B*27:05. Described as above.
The target in assay [15] is HLA-B*39:01. Described as above.
Assay [16] addresses HLA-B*40:01. The description is as above.
The target of assay [17] is HLA-B*46:01. Described as above.
The target of assay [18] is HLA-B*48:01. Described as above.
Assay [19] concerns the target HLA-B*51:01. The description is as above. Particulars: source organism: Mycobacterium tuberculosis.
Assay [20] concerns the target HLA-A*26:01. The assay is described as above. Particulars: source organism: Salmonella enterica subsp. enterica serovar Typhimurium.
Assay [21] concerns the target HLA-B*07:02. Described as above.
Assay [22] deals with HLA-A*02:01. Nature of the assay: IEDB peptide-MHC binding, purified MHC/competitive/fluorescence; ≥ and ≤ were set here for values at or beyond the usual limits of such assays.
Assay [23] deals with HLA-B*08:01. The description is as above.
Assay [24] concerns the target HLA-A*02:03. Description: IEDB peptide-MHC binding, purified MHC/competitive/radioactivity; filed as Kd, often an IC50 or EC50 that approximates it; ≥ and ≤ were set here for values at or beyond the usual limits of such assays. Particulars: source organism: Dengue virus 2 Jamaica/1409/1983.
Assay [25] deals with HLA-A*02:06. The description is as above.
The target in assay [26] is HLA-A*29:02. Description: IEDB peptide-MHC binding, purified MHC/direct/fluorescence; filed as Kd, often an IC50 or EC50 that approximates it; ≥ and ≤ were set here for values at or beyond the usual limits of such assays.
For assay [27], the target named is HLA-B*44:02. The assay is described as above.
For assay [28], the target named is HLA-A*11:01. Nature of the assay: IEDB peptide-MHC binding, purified MHC/competitive/fluorescence; ≥ and ≤ were set here for values at or beyond the usual limits of such assays. Particulars: source organism: Zaire ebolavirus.
Assay [29] deals with HLA-A*24:02. The description is as above. The note with it: source organism: Zaire ebolavirus.
Assay [30] concerns the target HLA-A*02:03. Description: IEDB peptide-MHC binding, purified MHC/direct/fluorescence; filed as Kd, often an IC50 or EC50 that approximates it; ≥ and ≤ were set here for values at or beyond the usual limits of such assays. The note with it: source organism: Mycobacterium tuberculosis str. Haarlem.
The mark [31] stands for this setting: source organism: Dengue virus 3 China/80-2/1980.
The mark [32] stands for this setting: source organism: Lake Victoria marburgvirus - Popp.
The mark [33] stands for this setting: source organism: Dengue virus 2 Jamaica/1409/1983.
Setting [34] is: source organism: Mycobacterium tuberculosis.
[35] abbreviates: source organism: Salmonella enterica subsp. enterica serovar Typhimurium.
Where [36] appears, read: source organism: Vaccinia virus.
Where [37] appears, read: source organism: Vibrio cholerae.
The mark [38] stands for this setting: source organism: Dengue virus 4 Philippines/H241/1956.
[39] abbreviates: source organism: Dengue virus 1 Brazil/97-11/1997.
[40] abbreviates: source organism: West Nile virus.
The mark [41] stands for this setting: source organism: Dengue virus 1 Singapore/S275/1990.
[42] abbreviates: source organism: Zaire ebolavirus.
[43] abbreviates: source organism: Yellow fever virus.
Where [44] appears, read: source organism: Mycobacterium avium 104.

As usually defined, the Kd is the constant that tells how readily two partners part at equilibrium. As for VLLLVTHYA, the Kd in assay [1] (setting [31]) was 0.00697 µM; in assay [2] (setting [31]) it was 6.82 µM.
Turning to ITDITSPLW, the dissociation constant Kd in [3] (setting [32]) was at most 0.001 µM; in assay [4] (setting [32]), 0.0645 µM; in assay [5] (setting [32]), 0.003 µM.
Consider QLANAIFKL, for which the Kd in [1] (setting [31]) was determined as 0.00409 µM; in assay [2] (setting [31]), 0.0244 µM.
Consider IMAAILAYTI, for which the Kd in assay [1] (setting [33]) was found to be 0.0306 µM; in assay [2] (setting [33]), 1.6 µM.
Consider GPRGRHVVL, for which the Kd in [6] (setting [34]), in assay [7] (setting [34]), in assay [8] (setting [34]), in assay [9] (setting [34]), in [10] (setting [34]) and in assay [11] (setting [34]) was at least 20 µM in each case. The dissociation constant Kd in assay [12] (setting [34]), in assay [3] (setting [34]), in [13] (setting [34]), in assay [14] (setting [34]), in [15] (source organism: Mycobacterium tuberculosis str. Haarlem) and in [16] (setting [34]) was at least 20 µM each time. Besides, the equilibrium dissociation constant (Kd) in [17] (setting [34]), in assay [18] (setting [34]), in assay [19], in [4] (setting [34]) and in assay [5] (setting [34]) was at least 20 µM each time.
For the sequence KSNGAQQWL, the Kd in assay [6] (setting [35]), in assay [7] (setting [35]), in assay [8] (setting [35]), in assay [20], in [21] (setting [35]) and in assay [12] (setting [35]) was at least 20 µM each time. Also, the dissociation constant Kd in [3] (setting [35]) was 0.006 µM; in assay [14] (setting [35]) it was at least 20 µM; in assay [4] (setting [35]), 2.16 µM; in assay [5] (setting [35]), 0.355 µM.
One may read the IC50 as the point on the concentration scale where inhibition reaches its midpoint. A high value points to a need for much substance. As to FRAFRNLNV, the IC50 in assay [22] (setting [36]) is at least 89.1 µM; in [23] (setting [36]) it was 6.19 µM.
Regarding LLLTLLATV, the Kd worked out at 0.00155 µM in assay [24], 0.00101 µM in assay [25] (setting [33]) and 0.157 µM in assay [2] (setting [33]).
QMEQWGCPW: the Kd in assay [3] (setting [37]) stood at 0.147 µM; in [4] (setting [37]) it was 5.43 µM; in assay [5] (setting [37]), 1.06 µM.
IILEFFLMVL: the figures for the Kd in [1] (setting [38]), in assay [25] (setting [39]) and in assay [2] (setting [38]) were 0.0955 µM, 0.329 µM and 1.4 µM, respectively.
Turning to YCPGTTVTL, the Kd in assay [6] (setting [40]), in assay [8] (setting [40]), in [9] (setting [40]), in assay [26] (setting [40]), in assay [10] (setting [40]) and in [11] (setting [40]) was at least 20 µM each time. Further, the Kd in assay [21] (setting [40]) is at least 20 µM; in assay [12] (setting [40]), at least 20 µM; in assay [13] (setting [40]), at least 20 µM; in assay [14] (setting [40]) it was at least 20 µM; in assay [15] (setting [40]) it was 1.31 µM; in [16] (setting [40]), at least 20 µM. Also, the Kd in assay [27] (setting [40]), in [17] (setting [40]), in assay [18] (setting [40]) and in assay [4] (setting [40]) was at least 20 µM each time.
For MLLMLLPTA, the Kd in assay [1] (setting [41]) stood at 0.000482 µM; in assay [25] (setting [39]), 0.00108 µM; in assay [2] (setting [41]) it was 0.161 µM.
Turning to QGIVRQRVI, the IC50 in assay [22] (setting [42]) was at least 401 µM; in assay [28], at least 159 µM; in [29] it was 11.4 µM; in assay [23] (setting [42]), 7.35 µM.
As to IILEFFLIVL, the Kd in assay [1] (setting [33]) turned out to be 0.109 µM; in [25] (setting [33]), 0.325 µM; in [2] (setting [33]), 0.802 µM.
As for VNRWLFRHL, the Kd in assay [6] (setting [43]), in assay [7] (setting [43]), in assay [8] (setting [43]), in assay [26] (setting [43]), in [10] (setting [43]) and in assay [11] (setting [43]) was at least 20 µM each time. In addition, the Kd in assay [21] (setting [43]), in [12] (setting [43]), in [13] (setting [43]), in assay [14] (setting [43]), in [16] (setting [43]) and in assay [27] (setting [43]) was at least 20 µM each time. In addition, the Kd in assay [17] (setting [43]), in assay [18] (setting [43]), in assay [4] (setting [43]) and in [5] (setting [43]) was at least 20 µM each time.
Consider DMDYHKILT, for which the values for the IC50 in assay [22] (setting [42]), in assay [29] and in assay [23] (setting [42]) were at least 277 µM, 4.04 µM and at least 199 µM, respectively.
In the case of EHVQGDIDL, the Kd in assay [6] (setting [44]), in [7] (setting [44]), in [8] (setting [44]), in assay [9] (setting [44]), in [26] (setting [44]) and in [10] (setting [44]) was at least 20 µM throughout. Besides, the dissociation constant Kd was at least 20 µM in assay [11] (setting [44]); at least 20 µM in [21] (setting [44]); at least 20 µM in assay [12] (setting [44]); at least 20 µM in assay [13] (setting [44]); at least 20 µM in assay [14] (setting [44]); 0.224 µM in assay [15] (setting [44]). Moreover, the Kd in assay [27] (setting [44]), in [17] (setting [44]), in [18] (setting [44]), in assay [4] (setting [44]) and in assay [5] (setting [44]) was at least 20 µM throughout.
In assay [30], AMWDWSKSV gave a Kd of at most 0.001 µM.
Take YMWLGARFL: the Kd in assay [1] (setting [33]) came out at 0.00672 µM; in assay [2] (setting [33]), 0.0942 µM.

The record behind these values is the Immune Epitope Database (IEDB).
